Results published in patent US7211420B1, “Process for oxidizing terpenes” (ISIS Innovation Limited, priority 1998, dated 2007).

Legend:
Format in all cases: biochemical
[1] = Oxidation of L-limonene by P450cam mutants, product proportions by GC; conditions: substrate L-Limonene
Experimental: (§1) For simple screening the substrate can be added to culture and the incubation continued. However, due to impurities from the culture media the cells were generally washed twice with 0.5 vol. of buffer P, (KH2PO4 6.4 g, K2HPO4.3H2O 25.8 g, H2O to 4 liters, pH 7.4) and resuspended in 0.25 vol. oxygen saturated buffer P containing 24 mM glucose. Substrate was added to 1 mM and the incubation continued at 30° C. The reaction was allowed to run for 24 hours with periodic additions of substrate and glucose.
(§2) The reaction was analysed by extracting 1 ml of the incubation mixture with 250 μl of ethylacetate. After centrifuging in a microcentrifuge at 13,000 g for 2 minutes, 2 μl of the organic extract was injected onto a 0.25 mm×30 m DB-1 gas chromatography column in a Fisons GC 8000 series gas chromatograph. The samples were carried through the column using helium carrier gas and the compounds present were detected using a flame ionisation detector.

[2] = Oxidation of valencene by P450cam mutants, product proportions by GC; conditions: substrate Valencene
Experimental: as §1, §2

[3] = Oxidation of α-pinene by P450cam mutants, product proportions by GC; conditions: substrate α-Pinene
Experimental: as §1, §2

[4] = single oxygen insertion products only, 30 m DB-1 GC column

B1: Wild-type: Wild-type P450cam haem monooxygenase from Pseudomonas putida, sequence in Table 7 (protein, UniProt P00183 2-415, looked up)
Camphor 5-monooxygenase: TTETIQSNANLAPLPPHVPEHLVFDFDMYNPSNLSAGVQEAWAVLQESNVPDLVWTRCNGGHWIATRGQLIREAYEDYRHFSSECPFIPREAGEAYDFIPTSMDPPEQRQFRALANQVVGMPVVDKLENRIQELACSLIESLRPQGQCNFTEDYAEPFPIRIFMLLAGLPEEDIPHLKYLTDQMTRPDGSMTFAEAKEALYDYLIPIIEQRRQKPGTDAISIVANGQVNGRPITSDEAKRMCGLLLVGGLDTVVNFLSFSMEFLAKSPEHRQELIERPERIPAACEELLRRFSLVADGRILTSDYEFHGVQLKKGDQILLPQMLSGLDERENACPMHVDFSRQKVSHTTFGHGSHLCLGQHLARREIIVTLKEWLTRIPDFSIAPGAQIQHKSGIVSGVQALPLVWDPATTKAV
In the case of B1, the Comments [1] is reported as “Very small quantities”, the “Approximate proportion of Product at 6.10–6.20 min” value [1, 4] is reported as 30% and the “Approximate proportion of product Isopiperitenol (6.60–6.70 min)” value [1, 4] is reported as 70%. For the same molecule, the Comments [2] was “Many small peaks”, the “Approximate proportion of product Pinene oxide” value [3] was 10% and the “Approximate proportion of product Verbenol” value [3] was 30%. For the same molecule, the “Approximate proportion of product Verbenone” value [3] was 10% and the “Remaining other products (Comments)” value [3] was “Remaining 50% other products”.
